{"source": "patent US9499823B2", "about": "“Constructs expressing chimeric receptors and use thereof for the controlled activation of defence response to pathogens in plants” (priority 2009, dated 2016)", "molecules": {"B1": {"name": "WEG: chimeric receptor: WAK1 ectodomain fused to the TM-iJM-kinase portion of EFR, GFP-fused (protein)", "chain": "QHQPGENCQNKCGNITIEYPFGISSGCYYPGNESFSITCKEDRPHVLSDIEVANFNHSGQLQVLLNRSSTCYDEQGKKTEEDSSFTLENLSLSANNKLTAVGCNALSLLDTFGMQNYSTACLSLCDSPPEADGECNGRGCCRVDVSAPLDSYTFETTSGRIKHMTSFHDFSPCTYAFLVEDDKFNFSSTEDLLNLRNVMRFPVLLDWSVGNQTCEQVGSTSICGGNSTCLDSTPRNGYICRCNEGFDGNPYLSAGCQDVNECTTSSTIHRHNCSDPKTCRNKVGGFYCKCQSGYRLDTTTMSCKRKEVVSGICIGIASLLLIIIVASLCWFMKRKKKNNASDGNPSDSTTLGMFHEKVSYEELHSATSRFSSTNLIGSGNFGNVFKGLLGPENKLVAVKVLNLLKHGATKSFMAECETFKGIRHRNLVKLITVCSSLDSEGNDFRALVYEFMPKGSLDMWLQLEDLERVNDHSRSLTPAEKLNIAIDVASALEYLHVHCHDPVAHCDIKPSNILLDDDLTAHVSDFGLAQLLYKYDRESFLNQFSSAGVRGTIGYAAPEYGMGGQPSIQGDVYSFGILLLEMFSGKKPTDESFAGDYNLHSYTKSILSGCTSSGGSNAIDEGLRLVLQVGIKCSEEYPRDRMRTDEAVRELISIRSKFFSSKTTITESPRDAPQSSPQEWMLNTDMHTM", "modifications": "left off: large carriers"}}, "test_system": "transgenic Arabidopsis leaves", "assay": "Constitutive activation of defense responses (H2O2, callose) in transgenic plants", "type": "cell-based, Arabidopsis thaliana", "conditions": "no elicitor", "method": "Leaves were stained with 3,3′-diaminobenzidine (DAB) for H2O2 visualization (upper panel) and with aniline blue for callose visualization (lower panel).\n3,3′-diaminobenzidine (DAB) staining, callose deposition and gene resistance analysis were assayed as described (Galletti et al., 2008). For measuring active oxygen species released by tobacco agroinfiltrated plants after elicitor treatment, the authors used a modified luminol-dependent assay (Gomez et al., 1999). Slices, corresponding to approximately 30 mg fresh weight, were transferred to assay tubes containing 1 μM flg22 or 10 μM elfl8 in aqueous solution supplied with 40 μM luminol (SIGMA). Chemo-luminescence was measured in a liquid scintillation counter (LS-6500, Beckman) after 5 and 15 min upon addition of elicitors.", "data": [{"molecule": "B1", "values": [{"measurement": "constitutive activation of defense responses (H2O2 levels, callose deposits)", "result": "do not show constitutive activation of defense responses"}]}]}
